Experiments:
Biot-CC2-LZ (murine) [1] = assay: HTRF, 50 nM each, streptavidin-EuK 2 nM, anti-His-XL665 7 nM
Biot-CC2-LZ (murine) [2] = assay: HTRF, 50 nM each, in the presence of Mono-Ub (1 µM)
Biot-CC2-LZ (murine) [3] = assay: HTRF, 50 nM each, in the presence of Poly-Ub (12.5 µM)
Biot-CC2-LZ (murine) [4] = assay: HTRF, 50 nM each, in the presence of GST-Ub4 (12.5 µM), which induces the CC2-LZ dimer

FRET (ΔF %) (Biot-CC2-LZ (murine) [1]): < 0 ΔF %
FRET (ΔF %) (Biot-CC2-LZ (murine) [2]): < 0 ΔF %
FRET (ΔF %) (Biot-CC2-LZ (murine) [3]): < 0 ΔF %
FRET (ΔF %) (Biot-CC2-LZ (murine) [4]): 373 ΔF %
B1: His-CC2-LZ (protein)
chain: MGSHHHHHHSSGLVPRGSHMASLEDLRQQLQQAEEALVAKQELIDKLKEEAEQHKIVMETVPVLKAQADIYKADFQAERHAREKLVEKKEYLQEQLEQLQREFNKL

Reference: patent US20100240040A1, “METHOD FOR SCREENING FOR SELECTIVE MODULATOR OF THE NF-KB PATHWAY ACTIVATION” (INSTITUT PASTEUR, priority 2007, published 2010)
